Experiments:
[1] = biological target: RSV protein F of strain B Wash/18537 (RSV B Wash/18537 (ATCC number VR-1580)) (UniProt P13843); assay: cell-based or functional assay
[2] = biological target: RSV protein F of strain B1 (RSV B1 (ATCC number VR-1400)) (UniProt O36634); assay: cell-based or functional assay
[3] = biological target: RSV protein F of strain Long (RSV Long (ATCC number VR-26)) (UniProt P12568); assay: cell-based or functional assay
[4] = biological target: RSV protein G (recombinant G protein) (respiratory syncytial virus (RSV), strain not stated); assay: SPR (Biacore), Fab on recombinant antigen

RSV protein F of strain B Wash/18537 (RSV B Wash/18537 (ATCC number VR-1580)), sequence (P13843 26-574): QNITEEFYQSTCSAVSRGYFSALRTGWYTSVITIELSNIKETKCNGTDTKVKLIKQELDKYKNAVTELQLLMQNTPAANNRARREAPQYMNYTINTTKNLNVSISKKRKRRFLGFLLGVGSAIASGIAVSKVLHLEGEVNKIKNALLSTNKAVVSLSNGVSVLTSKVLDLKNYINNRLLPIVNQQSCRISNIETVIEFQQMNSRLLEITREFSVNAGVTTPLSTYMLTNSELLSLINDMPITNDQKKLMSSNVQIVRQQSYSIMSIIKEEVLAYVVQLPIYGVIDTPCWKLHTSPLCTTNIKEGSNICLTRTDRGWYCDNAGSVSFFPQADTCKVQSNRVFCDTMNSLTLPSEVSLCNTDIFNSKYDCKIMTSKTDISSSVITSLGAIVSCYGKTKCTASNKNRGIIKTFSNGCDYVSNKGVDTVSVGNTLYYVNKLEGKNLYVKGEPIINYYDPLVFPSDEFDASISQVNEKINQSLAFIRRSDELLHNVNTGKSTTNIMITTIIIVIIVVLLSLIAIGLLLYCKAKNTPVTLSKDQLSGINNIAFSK
RSV protein F of strain B1 (RSV B1 (ATCC number VR-1400)), sequence (O36634 26-574 limits assumed): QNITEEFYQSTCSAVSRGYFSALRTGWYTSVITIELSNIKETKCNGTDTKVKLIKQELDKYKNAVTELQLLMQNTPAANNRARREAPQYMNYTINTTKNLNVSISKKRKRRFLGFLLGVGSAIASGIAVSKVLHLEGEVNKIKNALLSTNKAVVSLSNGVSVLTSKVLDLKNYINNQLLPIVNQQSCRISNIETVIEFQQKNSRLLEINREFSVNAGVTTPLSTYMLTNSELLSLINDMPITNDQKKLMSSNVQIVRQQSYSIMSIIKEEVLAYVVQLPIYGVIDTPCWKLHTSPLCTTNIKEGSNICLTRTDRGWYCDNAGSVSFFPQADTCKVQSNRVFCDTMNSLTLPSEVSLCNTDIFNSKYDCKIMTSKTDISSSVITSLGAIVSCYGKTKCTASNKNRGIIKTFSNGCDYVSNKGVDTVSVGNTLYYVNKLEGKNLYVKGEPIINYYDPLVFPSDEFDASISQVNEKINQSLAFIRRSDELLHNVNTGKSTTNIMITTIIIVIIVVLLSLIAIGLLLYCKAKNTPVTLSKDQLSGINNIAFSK
RSV protein F of strain Long (RSV Long (ATCC number VR-26)), sequence (P12568 26-574): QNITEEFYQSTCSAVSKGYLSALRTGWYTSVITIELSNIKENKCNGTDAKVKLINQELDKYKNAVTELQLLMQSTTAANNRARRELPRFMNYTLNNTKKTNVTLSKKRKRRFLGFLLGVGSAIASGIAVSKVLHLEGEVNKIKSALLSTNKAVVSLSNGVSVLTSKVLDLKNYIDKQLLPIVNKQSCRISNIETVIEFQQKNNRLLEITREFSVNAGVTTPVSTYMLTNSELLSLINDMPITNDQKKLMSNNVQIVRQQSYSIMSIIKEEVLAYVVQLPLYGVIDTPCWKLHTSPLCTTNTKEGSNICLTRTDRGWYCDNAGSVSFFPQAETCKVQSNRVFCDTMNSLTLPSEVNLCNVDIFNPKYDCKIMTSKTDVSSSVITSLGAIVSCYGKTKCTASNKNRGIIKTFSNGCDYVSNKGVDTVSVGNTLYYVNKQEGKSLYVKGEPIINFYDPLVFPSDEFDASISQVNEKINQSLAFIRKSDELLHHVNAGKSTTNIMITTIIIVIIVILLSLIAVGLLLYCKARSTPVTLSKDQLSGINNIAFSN

Binder | PRNT EC50 with complement, RSV 18537 [1] [µg/mL] | PRNT EC50 with complement, RSV B1 [2] [µg/mL] | PRNT EC50 with complement, RSV Long [3] [µg/mL] | Kd [4] [nM] | koff [4] [s⁻¹] | kon [4] [M⁻¹ s⁻¹] | t1/2 [4] [min]
antibody clone 880 (antibody, human IgG1, kappa, V domains shown) VH: QITLKESGPTLVRPTQTLTLTCTFSGFSLSTSKLGVGWIRQPPGKALEWLALVDWDDDRRYRPSLKSRLTVTKDTSKNQVVLTMTNMDPVDTATYYCAHSAYYTSSGYYLQYFHHWGPGTLVTVSS VL: DIQMTQSPSSLAASVGDRVTITCRASQTIASYVNWYQQKPGKAPNLLIYAASSLQSGVPSRFSGSGSGTDFTLTISSLQPEDFASYFCQQSYSFPYTFGQGTKLDIKR | 0.95 | 0.4 | 0.38 |  |  |  | 
Fab fragment of antibody clone 816 (Fab) VH: EVQLLESGGGLVQPGGSLRLSCVASGFTFSTYAMTWVRQAPGKGLEWVSVIRASGDSEIYADSVRGRFTISRDNSKNTVFLQMDSLRVEDTAVYFCANIGQRRYCSGDHCYGHFDYWGQGTLVTVSS light: DIVMTQSPLSLPVTPGEPASISCRSSQSLLHSDGRYYVDWYLQKPGQSPHLLIYLASNRASGVPDRFTGSGSGTDFTLKISRVEAEDVGVYYCMQGLHTPWTFGQGTKVDIKRTVAAPSVFIFPPSDEQLKSGTASVVCLLNNFYPREAKVQWKVDNALQSGNSQESVTEQDSKDSTYSLSSTLTLSKADYEKHKVYACEVTHQGLSSPVTKSFNRGEC |  |  |  | 0.09 | 0.000178 | 2.02e+06 | 65
Fab fragment of antibody clone 796 (Fab) VH: QVQLVESGGGVVQPGRSLRLSCAASGFSFSHFGMHWVRQVPGKGLEWVAIISYDGNNVHYADSVKGRFTISRDNSKNTLFLQMNSLRDDDTGVYYCAKDDVATDLAAYYYFDVWGRGTLVTVSS light: DIVMTQTPLSLSVTPGQPASISCRSSQSLLRSDGKTFLYWYLQKPGQSPQPLMYEVSSRFSGVPDRFSGSGSGADFTLNISRVETEDVGIYYCMQGLKIRRTFGPGTKVEIKRTVAAPSVFIFPPSDEQLKSGTASVVCLLNNFYPREAKVQWKVDNALQSGNSQESVTEQDSKDSTYSLSSTLTLSKADYEKHKVYACEVTHQGLSSPVTKSFNRGEC |  |  |  | 0.48 | 0.000403 | 833000 | 28.7
antibody clone 827 (antibody, human IgG1, kappa, V domains shown) VH: QVQLVQSGAEVKKPGASVKVSCRVSGHTFTALSKHWMRQGPGGGLEWMGFFDPEDGDTGYAQKFQGRVTMTEDTATGTAYMELSSLTSDDTAVYYCATVAAAGNFDNWGQGTLVTVSS VL: DIQMTQSPSSLAASVGDRVTITCRASQFISSYLHWYQQRPGKAPKLLMYAASTLQSGVPSRFSGSGSGTDFTLTISSLQPEDFATYYCQQSYTNPYTFGQGTKLEIKR | 0.1 |  | 0.16 |  |  |  | 
antibody clone 818 (antibody, human IgG1, kappa, V domains shown) VH: QVTLRESGPAVVKPTETLTLTCAFSGFSLNAGRVGVSWIRQPPGQAPEWLARIDWDDDKAFRTSLKTRLSISKDSSKNQVVLTLSNMDPADTATYYCARTQVFASGGYYLYYLDHWGQGTLVTVSS VL: DIQMTQSPSSLSASVGDRVTITCRASQTIASYVNWYQQKPGRAPSLLIYAASNLQSGVPPRFSGSGSGTDFTLTISGLQPDDFATYYCQQSYSYRALTFGGGTKVEIKR | 0.21 |  | 0.15 |  |  |  | 
antibody clone 831 (antibody, human IgG1, kappa, V domains shown) VH: QVQLVQSGAEVKKPGASVKVSCKASANIFTYAMHWVRQAPGQRLEWMGWINVGNGQTKYSQRFQGRVTITRDTSATTAYMELSTLRSEDTAVYYCARRASQYGEVYGNYFDYWGQGTLVTVSS VL: DIQMTQSPSTLSASVGDRLTITCRASQNIYNWLAWYQQKPGKAPKLLIYDASTLESGVPSRFSGSGSGTEFTLTISSLQPDDFATYYCQQYNSLSPTFGQGTKVEIKR | 0.72 | 1.66 | 0.08 |  |  |  | 
antibody clone 800 (antibody, human IgG1, kappa, V domains shown) VH: QVQLVESGGAVVQPGRSLRLSCEVSGFSFSDYGMNWVRQGPGKGLEWVAVIWHDGSNKNYLDSVKGRFTVSRDNSKNTLFLQMNSLRAEDTAVYYCARTPYEFWSGYYFDFWGQGTLVTVSS VL: AIQLTQSPSSLSASVGDRVTLTCRASQGITDSLAWYQQKPGKAPKVLLYAASRLESGVPSRFSGRGSGTDFTLTISSLQPEDFATYYCQQYSKSPATFGPGTKVEIRR |  | 0.16 | 0.15 |  |  |  | 
antibody clone 894 (antibody, human IgG1, kappa, V domains shown) VH: QVQLVESGGGVVQPGKSLRLSCAASGFRFSDYGMHWVRQAPSKGLEWVAVIWHDGSNIRYADSVRGRFSISRDNSKNTLYLQMNSMRADDTAFYYCARVPFQIWSGLYFDHWGQGTLVTVSS VL: EIVMTQSPATLSVSPGERATLSCRASQSVGNNLAWYQQRPGQAPRLLIYGASTRATGIPARFSGSGSGTEFTLTISSLQSEDFAVYYCQQYDKWPETFGQGTKVDIKR | 0.07 |  | 0.08 |  |  |  | 
Fab fragment of antibody clone 859 (Fab) VH: QVQLVESGGGVVQPGRSLRLSCAVSGSSFSKYGIHWVRQAPGKGLEWVAVISYDGSKKYFTDSVKGRFTIARDNSQNTVFLQMNSLRAEDTAVYYCATGGGVNVTSWSDVEHSSSLGYWGLGTLVTVSS light: DIQMTQSPSSLSASVGDRVTITCRASQGIRNYLAWYQQKPGKVPKLLVFAASTLQSGVPSRFSGSGSGTDFTLTISSLQPEDVATYYCQRYNSAPLTFGGGTKVEIKRTVAAPSVFIFPPSDEQLKSGTASVVCLLNNFYPREAKVQWKVDNALQSGNSQESVTEQDSKDSTYSLSSTLTLSKADYEKHKVYACEVTHQGLSSPVTKSFNRGEC |  |  |  | 0.12 | 4.63e-05 | 380000 | 250
Fab fragment of antibody clone 853 (Fab) VH: EVQLVQSGAEVKKPGQSLKISCKTSGYIFTNYWIGWVRQRPGKGLEWMGVIFPADSDARYSPSFQGQVTISADKSIGTAYLQWSSLKASDTAIYYCARPKYYFDSSGQFSEMYYFDFWGQGTLVTVSS light: EIVLTQSPGTLSLSPGERATLSCRASQSVSSNYLAWYQQKPGQAPRLLIYGASSRAAGMPDRFSGSGSGTDFTLTISRLEPEDFAVYYCQQYGNSPLTFGGGTEVEIKRTVAAPSVFIFPPSDEQLKSGTASVVCLLNNFYPREAKVQWKVDNALQSGNSQESVTEQDSKDSTYSLSSTLTLSKADYEKHKVYACEVTHQGLSSPVTKSFNRGEC |  |  |  | 0.79 | 0.0014 | 1.77e+06 | 8.25
